Assay results from US8697648B2, “Protein agent for diabetes treatment and β cell imaging” (Georgia State University Research Foundation, Inc., priority 2009, dated 2014).
Read-outs that look alike come from different tables or passages of the source.

What was measured:
[1] = test system: Diabetic mice (BKS.Cg-Lepr^db/db); assay: Blood glucose lowering in fed diabetic mice (Example 15); assay type: in vivo
Protocol: The animals were re-feed for 25 minutes 5 hours after drug administration and 35 minutes before the last time point of blood sample collection. The A Blood Glucose (mg/dl) was determined by calculating the difference between the measured blood glucose levels at any given time point and the initial blood glucose levels. The initial blood glucose levels were measured after feeding for 20 min and before the drug administration (time zero). The error bars represent standard deviations of measurements of eight mice.
The developed protein agent was tested to determine whether it had the in vivo capability of lowering blood glucose in diabetic subjects. Diabetic mice (BKS.Cg-Lepr^db/db, The Jackson Laboratory) were used as test subjects. A group of six animals first fasted for 6 hours. After fasting, the animals were fed for 30 minutes. The protein agent was administered after feeding by intraperitoneal injection at a dose of 25 nmole/kg. The animals were fed again for 30 mins, 5 hrs after agent administration. Blood samples were taken at different time points after administration of the agent. Glucose concentration in the blood samples was measured using a commercially available kit.

diabetic mice = assay: Blood glucose and glucose-dependent insulin secretion after co-administration with glucose (Example 16); assay type: in vivo; conditions: 25 nmole/kg agent with 15 mmole/kg glucose i.p.
Protocol: FIG. 12 is a pair of graphs showing the changes in Δ blood glucose (Upper panel) and Δ insulin (bottom panel) in a group of 8 diabetic mice at different time points after injection of 15 mmole/kg of glucose with 25 nmole/kg of different agents.
The effects of the developed agent on blood glucose lowering and stimulating of the glucose-dependent insulin secretion in diabetic mice were also examined. The animals first fasted for 6 hours. The protein agent (25 nmole/kg) and glucose (15 mmole/kg) were co-administrated via intraperitoneal injection with a group of eight diabetic mice. The blood glucose and insulin levels were measured at different time points. As controls, the same dose of glucose was administrated alone and co-administrated with the parental protein calbindin in separate groups of diabetic mice.

[2] = cited from earlier work
[3] = R1 and R2 relaxivity with a relaxometer; assay type: physicochemical; conditions: 1.4 T
Protocol: To ensure that the fusion protein is applicable as a MRI contrast agent, the Gd^3+ binding property and R1/R2 relaxivity of the fusion protein were tested using well-known methods.

GLP-1 receptor = molecular target: T1, GLP-1 receptor (Rattus norvegicus, UniProt P32301); assay: Cell-based intracellular cAMP assay (Lance cAMP 384 kit) in RINm5F cells; conditions: concentration around 200 μM
T1 construct: It is well known that GLP-1R is expressed in RINm5F but not in CHO cells; endogenous in cells; host or cells: RINm5F rat insulinoma cells
T1 sequence (P32301 22-463): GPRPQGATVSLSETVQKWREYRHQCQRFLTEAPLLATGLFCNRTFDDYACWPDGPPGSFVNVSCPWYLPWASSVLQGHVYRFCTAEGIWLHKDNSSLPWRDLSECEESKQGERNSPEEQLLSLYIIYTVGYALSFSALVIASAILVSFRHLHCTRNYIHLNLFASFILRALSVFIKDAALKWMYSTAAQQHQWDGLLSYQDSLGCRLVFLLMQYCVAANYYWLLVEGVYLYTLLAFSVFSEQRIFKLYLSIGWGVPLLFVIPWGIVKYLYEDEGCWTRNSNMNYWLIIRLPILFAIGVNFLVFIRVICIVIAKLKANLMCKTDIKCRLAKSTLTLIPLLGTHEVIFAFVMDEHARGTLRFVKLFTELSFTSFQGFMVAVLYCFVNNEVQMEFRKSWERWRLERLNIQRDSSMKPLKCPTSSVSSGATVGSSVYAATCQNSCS
Protocol: The cells were harvested 30 minutes post treatments. Cell lysates were prepared from the harvested cells. The cAMP levels in the lysate were then measured and expressed as pmole values. The error bars represent standard deviations of four times of measurements.
A Lance cAMP 384® Kit (Perkin Elmer, Inc) was used to compare the incretin effects of fusion protein and PEGylated protein. Rat Insulinoma cells (RINm5F) were cultured with RPMI1640 with 10% FBS in 75 cm^2 cell culture flasks. Cells are harvested and washed three times with HBSS (Invitrogen Corp.) buffer. A series of 5 μl test protein and 5 μl cell suspension with 5000 cells in stimulation buffer (1×HBSS buffer with 5 mM HEPES, 0.1% BSA and 150 mM IBMX) and Alexa, biotin labeled cAMP antibodies were incubated at 37° C. for 15 mins in 384-well plate. […] A VICTOR^3 plated reader (PerkinElmer, Inc.) was used to detect the fluorescence signal at excitation 340 nm and emission 665 nm and 615 nm. The collected data was then analyzed with the equation of F=F665 nm/F615 nm. […]
The effects of the PEGylated proteins and unPEGylated protein in stimulating the cAMP production were examined in rat insulinoma β-cells RINm5F. The cAMP production was analyzed using a commercial cAMP kit (PerkinElmer).

RINm5F cells = assay: Immunostaining binding analysis, RINm5F cells (GLP-1R expressed); assay type: cell-based, rat; conditions: Cal.GLP 10 μM, calbindin D9k 50 μM, 37° C., 30 mins
Protocol: (§1) FIG. 10 is a series of digital images showing immunofluorescence staining of CHO or RINm5F cells that were treated by calbindin (50 μM) and Cal.GLP (10 μM). The cells were extensively washed after 30 min treatments under 37° C. in microscopic chamber slides and subsequently fixed. The cells were stained with the calbindin-specific antibody and visualized under confocal microscopy. The light shading represents antibody staining.
(§2) To examine whether the developed protein indeed interacted with GLP-1R, the binding of the fusion protein with two cell lines, RINm5F and CHO cells was examined. It is well known that GLP-1R is expressed in RINm5F but not in CHO cells. Both RINm5F and CHO cells were incubated with fusion protein Cal.GLP (10 μM) or calbindin D9k (50 μM) at 37° C. for 30 mins. After extensive washing, the cells were fixed and subjected to immunostaining analyses using a rabbit polyclonal antibody against parental protein calbindin D9k. […] Similar binding analyses were carried out with RINm5F cells and a […] (αTC1).

CHO cells = assay: Immunostaining binding analysis, CHO cells (no GLP-1R); assay type: cell-based; conditions: Cal.GLP 10 μM, calbindin D9k 50 μM, 37° C., 30 mins
Protocol: as §1, §2

[4] = in vivo

Which results are given for Exendin 4 [reference compound]?
drop of blood glucose levels ([1]; 25 nmole/kg i.p., within 30 minutes): about 189 mg/dl; blood glucose levels after re-feed ([1]; 6 hours post administration, one hour after re-feed): almost reached the same blood glucose levels before the drug treatments; time of immediate insulin increase and glucose decrease (diabetic mice): ≤ 30 min

For `CC[C@H](C)[C@H](NC(=O)[C@H](Cc1ccccc1)NC(=O)[C@H](CCC(=O)O)NC(=O)[C@H](CCCCN)NC(=O)[C@H](C)NC(=O)[C@H](C)NC(=O)[C@H](CCC(N)=O)NC(=O)CNC(=O)[C@H](CCC(=O)O)NC(=O)[C@H](CC(C)C)NC(=O)[C@H](Cc1ccc(O)cc1)NC(=O)[C@H](CO)NC(=O)[C@H](CO)NC(=O)[C@@H](NC(=O)[C@H](CC(=O)O)NC(=O)[C@H](CO)NC(=O)[C@@H](NC(=O)[C@H](Cc1ccccc1)NC(=O)[C@@H](NC(=O)CNC(=O)[C@H](CCC(=O)O)NC(=O)[C@H](C)NC(=O)[C@@H](N)Cc1c[nH]cn1)[C@@H](C)O)[C@@H](C)O)C(C)C)C(=O)N[C@@H](C)C(=O)N[C@@H](Cc1c[nH]c2ccccc12)C(=O)N[C@@H](CC(C)C)C(=O)N[C@H](C(=O)N[C@@H](CCCCN)C(=O)NCC(=O)N[C@@H](CCCNC(=N)N)C(N)=O)C(C)C` [GLP-1 peptide], which circulation time ([2]; degradation by DPP-4) is on record?
The circulation time was “less than 2 minutes”.

Which blood circulation time ([2]; in vivo) does the source give for `CCCCCCCCCCCCCCCC(=O)N[C@@H](CCC(=O)NCCCC[C@H](NC(=O)[C@H](C)NC(=O)[C@H](C)NC(=O)[C@H](CCC(N)=O)NC(=O)CNC(=O)[C@H](CCC(=O)O)NC(=O)[C@H](CC(C)C)NC(=O)[C@H](Cc1ccc(O)cc1)NC(=O)[C@H](CO)NC(=O)[C@H](CO)NC(=O)[C@@H](NC(=O)[C@H](CC(=O)O)NC(=O)[C@H](CO)NC(=O)[C@@H](NC(=O)[C@H](Cc1ccccc1)NC(=O)[C@@H](NC(=O)CNC(=O)[C@H](CCC(=O)O)NC(=O)[C@H](C)NC(=O)[C@@H](N)Cc1cnc[nH]1)[C@@H](C)O)[C@@H](C)O)C(C)C)C(=O)N[C@@H](CCC(=O)O)C(=O)N[C@@H](Cc1ccccc1)C(=O)N[C@H](C(=O)N[C@@H](C)C(=O)N[C@@H](Cc1c[nH]c2ccccc12)C(=O)N[C@@H](CC(C)C)C(=O)N[C@H](C(=O)N[C@@H](CCCNC(=N)N)C(=O)NCC(=O)N[C@@H](CCCNC(=N)N)C(=O)NCC(=O)O)C(C)C)[C@@H](C)CC)C(=O)O` [Liraglutide] here?
Its blood circulation time is “more than 10 hr”.

Which R1 [3] does the source give for `O=C(O)CN(CCN(CC(=O)O)CC(=O)O)CCN(CC(=O)O)CC(=O)O` (Gd complex, metal not drawn) [DTPA, reference compound] here?
Its R1 is 3.8 mM^−1S^−1.

B1: calbindin: parental host protein human Calbindin D9k, negative control; SEQ ID NO: 13 (protein)
chain: MSTKKSPEELKRIFEKYAAKEGDPDQLSKDELKLLIQAEFPSLLKGPNTLDDLFQELDKNGDGEVSFEEFQVLVKKISQ
modifications: human calbindin D9K
Which “increase of intracellular cAMP level” value (GLP-1 receptor) does the source give for B1 here?
The value was “could not increase cell intracellular cAMP level”.

What about the “binding to RINm5F cells” value (RINm5F cells) of the same molecule?
The value was “did not bind to either cell”.

What about the “binding to CHO cells” value (CHO cells) of the same molecule?
The value was “did not bind to either cell”.

And the “change of blood glucose levels” value ([1]; control group, same dose (25 nmole/kg))?
Its value is “decreased slightly”.

And the “blood glucose lowering post glucose and drug administration” value (diabetic mice)?
Its value is “did not”.

And the R1 [3]?
Its R1 is 6.58 mM^−1S^−1.

What about the blood circulation time [4] of the same molecule?
The blood circulation time was “more than 24 hours”.

B2: Cal.GLP/Q26D: Q26D variant of the Cal.GLP fusion protein; SEQ ID NO: 18 (protein)
chain: MSTKKSPEELKRIFEKYAAKEGDPDDLSKDELKLLIQAEFPCLLKGPNTLDDLFQELDKNGHAEGTFTSDVSSYLEGQAAKEFIAWLVKGR
Which R1 [3] does the source give for B2 here?
The R1 was 20 mM^−1S^−1.
